Values belong to the binder of their own block, whether it stands above or below them.
Columns and labels:
human SIAH1-SBD (91–282) [1] = molecular target: T1, human SIAH1-SBD (91–282) (human, UniProt Q8IUQ4-1 91-282); assay: ITC
T1 sequence (looked up): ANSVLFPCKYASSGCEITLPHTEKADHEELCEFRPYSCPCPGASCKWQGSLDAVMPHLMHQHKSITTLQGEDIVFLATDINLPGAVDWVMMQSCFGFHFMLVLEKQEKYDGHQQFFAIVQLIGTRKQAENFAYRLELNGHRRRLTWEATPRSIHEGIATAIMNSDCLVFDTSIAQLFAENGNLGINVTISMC

human SIAH1-SBD (91–282) [2] = molecular target: T1, human SIAH1-SBD (91–282); assay: pull-down

- Kd (human SIAH1-SBD (91–282) [1]): 5.6 µM
B1: 20-residue human AXIN1 peptide (residues 375–394) (peptide, UniProt O15169-1 375-394, looked up)
peptide: YRVPKEVRVEPQKFAEELIH

- binding result (human SIAH1-SBD (91–282) [2]): binds
B2: GST-tagged AXIN1 (353–436) (domain or fragment, human, UniProt O15169-1 353-436, looked up)
chain: RREMQESVQVNGRVPLPHIPRTYRVPKEVRVEPQKFAEELIHRLEAVQRTREAEEKLEERLKRVRMEEEGEDGDPSSGPPGPCH

Source: publication PMC5458757 (Genes & Development, 2017)
